Experimental findings from patent publication US20250250357A1 (NANJING ZAIMING PHARMACEUTICAL, published 2025) are described below.

Substitutions are numbered along the chain they refer to.

T1: monkey MSLN full-length protein (NCBI: XP_028696439.1) expressed on HEK293T-monkey MSLN cells (monkey)
T1 construct: Whole encoded precursor
T1 chain: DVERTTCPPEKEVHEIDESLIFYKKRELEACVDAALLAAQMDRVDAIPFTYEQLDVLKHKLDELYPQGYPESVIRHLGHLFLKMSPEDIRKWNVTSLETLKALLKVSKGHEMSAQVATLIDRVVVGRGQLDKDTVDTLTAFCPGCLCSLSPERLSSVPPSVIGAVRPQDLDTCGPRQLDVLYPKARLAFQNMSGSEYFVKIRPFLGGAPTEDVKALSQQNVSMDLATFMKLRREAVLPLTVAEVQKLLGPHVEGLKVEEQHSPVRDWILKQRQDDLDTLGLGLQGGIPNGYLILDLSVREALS

B1: S009-F7.53.2 (antibody, human IgG1, kappa, V domains shown)
VH: EVQLQQSGPELVKPGASVKIPCKTSGYTFTDYNMDWVKQSHGKSLEWIGDINPNTDGAIYNQKFQNKATLTVDKSSSTAYMELRSLTSEDTAVYYCTRRKLGRKFFDYWGQGTTLTVSS
VL: QIVLTQSPAIMSASPGEQVTMTCSASSSVGYMNWYQQKPGSSPRLLIYDTSNLASGVPVHFSGSGSGTSYSLTISRMEAAFAATYYCQQWYVYPYTFGGGTKLEIKR
notes: human-murine chimeric antibody, human IgG1/kappa constant regions
B2: S009-F7.41.18 (antibody, human IgG1, kappa, V domains shown)
VH: QVQLQQPGTELVKPGASVKLSCKASDYTFTSYWMHWVKQRPGQGLEWIGSINPSNGDTYYNEKFKNKATLTVDKSSSTAYMQLSSLTSDDSAVYYCARGWYFDVWGTGTTVTVSS
VL: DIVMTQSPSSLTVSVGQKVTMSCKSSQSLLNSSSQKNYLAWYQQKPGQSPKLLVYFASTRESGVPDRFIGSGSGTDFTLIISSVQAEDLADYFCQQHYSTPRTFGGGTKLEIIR
notes: as for B1
B3: S009-F7.44.20 (antibody, human IgG1, kappa, V domains shown)
VH: EVQLQQSGPELVKPGASVKIPCKASGYTFTDYNMDWVKQSHGKSLEWIGDINPSTGGTIYNQKFNGKATLTEDKSASTVYMEFRSLTSDDTAVYYCARRRIGTGYFDVWGTGTTVTVSS
VL: QIVLTQSPALMSASPGEKVTLTCSASSSVISSYLSWYQQKPGSSPKLLIYRTSNLASGVPARFSGSGSGTSYSLTISSMEAEDAASYFCHQWSSFPYTFGGGTKLEIKR
notes: as for B1
B4: S009-F7.61.21 (antibody, human IgG1, kappa, V domains shown)
VH: DVQLQQSGPELVEPGASVRIPCKAAGHTFTDYNVDWVKQSHGQSLEWIGDVNPNTDGAIYNQKFEGKATLTVDTSSSTAYMELRSLTSEDTAVYFCARRRLGQGGFDSWGQGTTLTVSS
VL: B3 VL with I2V, L10I, S24G, V29L, S32K, S35Y, L48W, R51S, F95Y, L105V
notes: as for B1
B5: S009-F7.48.1 (antibody, human IgG1, kappa, V domains shown)
VH: QVQLQQPGTELVKPGASVKLSCKASGYTFTSYWMHWVKQRPGQGLEWIGNINPSNGGTNNNENFKSKATLTVDTSSSTAYMQLSSLTSEDSAVYYCVRNGYHGYWYFDVWGTGTTVTVSS
VL: DIVMTQSQKFMSTSVGDRVSVTCKASQNVGTNVAWYQQQPGQSPKALIYSASYRYSGVPDRFTGSVSGTDFTLTISNVQSEDLAEYFCQQYNSYPLTFGGGTKLEIKR
notes: as for B1
B6: S009-F7.65.13 (antibody, human IgG1, kappa, V domains shown)
VH: EVQLQQSGPELVKPGTSVKILCKASGDTFTAYNMDWVKQRHGQSLEWIGDINPNTDSTIYNQKFEGKAILTVDKSSSTAYMELRSLTSEDTAVYYCARRKLGRGYFDYWGQGTTLTVSS
VL: QIVLTQSPAIMSASPGEKVTMTCSVNLSVRYIYWYQQKPGSSPRLLIHDTSNLASGVPVRFSGSGSGTSYSLTISRMEAEDAATYYCQQWSSFPYTFGGGTKLEIKR
notes: as for B1

For the first assay, the target named is T2, human MSLN protein endogenously expressed on OVCAR3 tumor cells (human, UniProt Q13421 296-598).
T2 construct: whole, on cells; Endogenous target on OVCAR3 cells; kept apart from the recombinant full-length construct; also called mesothelin
T2 sequence (Q13421 other isoform, or with tags, fused parts or gaps): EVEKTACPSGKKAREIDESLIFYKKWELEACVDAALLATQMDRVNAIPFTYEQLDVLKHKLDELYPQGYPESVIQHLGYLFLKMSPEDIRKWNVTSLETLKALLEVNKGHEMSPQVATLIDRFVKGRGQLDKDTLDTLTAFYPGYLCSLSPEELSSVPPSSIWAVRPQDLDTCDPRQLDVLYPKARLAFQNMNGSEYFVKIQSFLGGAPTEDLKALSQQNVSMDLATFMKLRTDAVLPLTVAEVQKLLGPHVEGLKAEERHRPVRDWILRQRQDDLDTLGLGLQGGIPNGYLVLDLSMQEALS
Nature of the assay: FACS on OVCAR3 cells.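 Further: flow cytometry binding of test antibodies to cells, 2 h incubation on ice, readout as cell mean fluorescence intensity.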
Procedure: (§1) The desired cells were expanded to the logarithmic growth phase in a T-75 cell culture flask. […] After the cells from the previous step were subjected to cell counting, the cell pellet was resuspended to 2×10⁶ cells/mL in a blocking buffer of [PBS+2% (w/w) BSA] and added into a 96-well FACS reaction plate at 50 μL/well. A chimeric antibody (a sample to be tested) was added at 50 μL/well, and the plate was incubated on ice for 2 h. […] After the plate was centrifuged and washed 5 times with a PBST buffer, assay and analysis were performed by FACS (FACS CantoII, purchased from BD). Data analysis was performed by software (Flowjo) to obtain the mean fluorescence intensity (MFI) of the cells.
In general, EC50 refers to the concentration giving half of the maximal effect. As for B1, the 50% effective concentration (EC50) stood at 1.09 nM and the “Maximum mean fluorescence intensity” value worked out at 23600.
With B2, the EC50 was found to be 0.22 nM and the “Maximum mean fluorescence intensity” value amounted to 25900.
Turning to B3, the EC50 came to 0.05 nM and the “Maximum mean fluorescence intensity” value stood at 25700.
As to B4, the midpoint of the response, the EC50, lay at 1.08 nM and the “Maximum mean fluorescence intensity” value came out at 23700.
For B5, in that order: roughly 4 nM and 24000.
For B6, the midpoint of the response, the EC50, lay at 0.87 nM and the “Maximum mean fluorescence intensity” value was found to be 26500.

In the next assay the target is T3, human MSLN-R3 protein (Met487-Ser606 of NCBI AAH09272.1) expressed on HEK293T-hMSLN-R3 cells (human, UniProt Q13421 487-606).
T3 construct: also called Region3
T3 sequence (Q13421 495-614): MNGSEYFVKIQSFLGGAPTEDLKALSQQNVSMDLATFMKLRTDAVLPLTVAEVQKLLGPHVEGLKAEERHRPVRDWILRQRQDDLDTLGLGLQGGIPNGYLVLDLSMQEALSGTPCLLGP
Kind of assay: FACS on HEK293T-hMSLN-R3 cells.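 Further: flow cytometry binding of test chimeric antibodies to cells after 2 h incubation on ice, with values derived from the mean fluorescence intensity of the cells.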
Procedure: as §1
B1: the EC50 worked out at 1.3 nM and the “Maximum mean fluorescence intensity” value came out at 6480.
For B2, in that order: 0.35 nM and 7460.
On to B3, for which it took 0.04 nM to reach a half-maximal effect (EC50) and the “Maximum mean fluorescence intensity” value came to 7470.
For B4, in that order: 0.48 nM and 6250.
For B5, the EC50 was determined as 1.87 nM and the “Maximum mean fluorescence intensity” value was 5150.
Turning to B6, the half-maximal effective concentration (EC50) amounted to 0.91 nM and the “Maximum mean fluorescence intensity” value worked out at 6490.

A further assay deals with T1, monkey MSLN full-length protein (NCBI: …). Nature of the assay: FACS on HEK293T-monkey MSLN cells.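 Further: flow cytometry binding of chimeric antibodies to the cells, with a 2 h incubation on ice.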
Procedure: as §1
For the molecule B1, the EC50 is 1.13 nM and the “Maximum mean fluorescence intensity” value was found to be 47400.
B2: the 50% effective concentration (EC50) was 0.54 nM and the “Maximum mean fluorescence intensity” value was determined as 64200.
Take B3: the EC50 is 0.04 nM and the “Maximum mean fluorescence intensity” value is 45600.
Take B4: the EC50 amounted to 0.75 nM and the “Maximum mean fluorescence intensity” value was 39800.
For B5, in that order: 2.88 nM and 43200.
B6: the concentration for a half-maximal effect (EC50) is 0.87 nM and the “Maximum mean fluorescence intensity” value came out at 50200.
